{"source": "patent US20240066137A1", "about": "(ONEGENE BIOTECHNOLOGY, published 2024)", "binders": {"B1": {"name": "FGF#1 (ligand)", "chain": "HPIPDSSPLLQFGGQVRQRYLYTDDAQQTEAHLEIREDGTVGGAADQSPESLLQLKALKPGVIQILGVKTSRFLCQRPDGALYGSLHFDPEACSFREEIRPDGYNVYQSEAHGLPLHLPGNKSPHRDPAPRGPARFLPLPGLPPALPEPPGILAPQPPDVGSSDPLSMVTGLEANRSPSYES"}, "B2": {"name": "FGF#7 (ligand)", "chain": "HPIPDSSPLLQFGGQVRQVYLYTDDAQQTEAHLEIREDGTVGGAADQSPESLLQLKALKPGVIQILGVKTSRFLCQRPDGALYGSLHFDPEACSFREDLKEDGYNVYQSEAHGLPLHLPGNKSPHRDPAPRGPARFLPLPGLPPALPEPPGILAPQPPDVGSSDPLRLVEPSQLRSPSFE"}, "B3": {"name": "FGF#5 (ligand)", "chain": "HPIPDSSPLLQFGGQVRQVYLYTDDAQQTEAHLEIREDGTVGGAADQSPESLLQLKALKPGVIQILGVKTSRFLCQRPDGALYGSLHFDPEACSFREDLKEDGYNVYQSEAHGLPLHLPGNKSPHRDPAPRGPARFLPLPGLPPALPEPPGILAPQPPDVGSSDPLSMVEGSQGRSPSYES"}, "B4": {"name": "FGF#9 (ligand)", "chain": "HPIPDSSPLLQFGGQVRQVYLYTDDAQQTEAHLEIREDGTVGGAADQSPESLLQLKALKPGVIQILGVKTSRFLCQRPDGALYGSLHFDPEACSFRERLLEDGYNVYQSEAHGLPLHLPGNKSPHRDPAPRGPARFLPLPGLPPALPEPPGILAPQPPDVGSSDPLSMVEGSQGRSPSYES"}}, "assay_in_all_cases": "cell-based or functional assay", "key": {"GLP-1 acceptor [1]": {"molecular_target": "T1, GLP-1 acceptor (UniProt P43220 24-463, limits assumed)"}, "FGFR1/KLB acceptor": {"molecular_target": "FGFR1/KLB acceptor (UniProt P11362 22-822; Q86Z14 1-1044, limits assumed)", "sequence (P11362 22-822 limits assumed, chain 1 of 2)": "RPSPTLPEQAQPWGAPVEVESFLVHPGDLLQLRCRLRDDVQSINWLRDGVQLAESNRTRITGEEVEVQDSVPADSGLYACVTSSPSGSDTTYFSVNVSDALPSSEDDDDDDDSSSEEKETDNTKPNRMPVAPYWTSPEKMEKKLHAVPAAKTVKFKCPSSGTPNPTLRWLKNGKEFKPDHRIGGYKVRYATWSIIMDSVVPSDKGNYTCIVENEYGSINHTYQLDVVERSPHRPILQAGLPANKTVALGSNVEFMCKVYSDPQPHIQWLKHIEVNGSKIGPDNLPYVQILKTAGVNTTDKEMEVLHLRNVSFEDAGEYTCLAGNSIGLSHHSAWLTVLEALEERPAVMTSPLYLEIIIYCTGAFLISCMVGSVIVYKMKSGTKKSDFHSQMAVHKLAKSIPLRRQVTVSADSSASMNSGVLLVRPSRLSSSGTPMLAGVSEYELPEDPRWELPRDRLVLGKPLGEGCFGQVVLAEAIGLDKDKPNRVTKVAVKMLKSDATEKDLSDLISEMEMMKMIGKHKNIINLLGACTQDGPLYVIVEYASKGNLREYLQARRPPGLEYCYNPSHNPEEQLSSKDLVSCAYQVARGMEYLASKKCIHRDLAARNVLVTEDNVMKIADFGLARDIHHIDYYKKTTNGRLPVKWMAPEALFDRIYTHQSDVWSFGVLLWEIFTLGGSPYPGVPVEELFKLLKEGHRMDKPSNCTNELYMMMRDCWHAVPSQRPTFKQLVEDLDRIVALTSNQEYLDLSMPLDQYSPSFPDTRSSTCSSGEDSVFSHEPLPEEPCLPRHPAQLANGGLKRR", "sequence (Q86Z14 whole entry, chain 2 of 2)": "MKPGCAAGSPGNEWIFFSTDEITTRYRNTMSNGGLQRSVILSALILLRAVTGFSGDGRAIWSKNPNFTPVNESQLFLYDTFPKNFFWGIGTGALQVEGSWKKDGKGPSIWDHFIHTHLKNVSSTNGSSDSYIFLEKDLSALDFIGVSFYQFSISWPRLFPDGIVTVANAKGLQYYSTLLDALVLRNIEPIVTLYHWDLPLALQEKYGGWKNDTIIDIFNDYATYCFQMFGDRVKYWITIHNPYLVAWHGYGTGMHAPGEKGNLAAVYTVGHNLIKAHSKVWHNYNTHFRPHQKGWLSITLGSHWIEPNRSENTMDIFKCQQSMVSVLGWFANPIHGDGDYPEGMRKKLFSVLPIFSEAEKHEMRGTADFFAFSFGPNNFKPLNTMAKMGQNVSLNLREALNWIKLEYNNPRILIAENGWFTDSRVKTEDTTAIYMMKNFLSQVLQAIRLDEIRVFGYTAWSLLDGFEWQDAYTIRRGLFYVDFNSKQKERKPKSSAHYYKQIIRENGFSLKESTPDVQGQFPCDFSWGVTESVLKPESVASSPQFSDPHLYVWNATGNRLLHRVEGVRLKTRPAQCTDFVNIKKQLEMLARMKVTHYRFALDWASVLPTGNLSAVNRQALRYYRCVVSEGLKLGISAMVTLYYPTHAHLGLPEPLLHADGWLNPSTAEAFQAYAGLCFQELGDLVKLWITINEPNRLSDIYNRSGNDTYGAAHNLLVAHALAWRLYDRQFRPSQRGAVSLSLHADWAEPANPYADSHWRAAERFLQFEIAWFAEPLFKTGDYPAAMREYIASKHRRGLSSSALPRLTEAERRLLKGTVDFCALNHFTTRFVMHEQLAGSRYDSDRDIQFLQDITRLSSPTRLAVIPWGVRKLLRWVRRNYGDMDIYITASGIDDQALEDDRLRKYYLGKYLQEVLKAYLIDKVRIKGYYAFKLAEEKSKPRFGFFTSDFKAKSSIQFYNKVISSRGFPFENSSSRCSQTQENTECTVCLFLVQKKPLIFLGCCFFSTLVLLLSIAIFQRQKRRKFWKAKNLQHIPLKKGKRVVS"}, "GIP acceptor": {"molecular_target": "T2, GIP acceptor (UniProt P48546 22-466, limits assumed)", "T2 sequence (looked up)": "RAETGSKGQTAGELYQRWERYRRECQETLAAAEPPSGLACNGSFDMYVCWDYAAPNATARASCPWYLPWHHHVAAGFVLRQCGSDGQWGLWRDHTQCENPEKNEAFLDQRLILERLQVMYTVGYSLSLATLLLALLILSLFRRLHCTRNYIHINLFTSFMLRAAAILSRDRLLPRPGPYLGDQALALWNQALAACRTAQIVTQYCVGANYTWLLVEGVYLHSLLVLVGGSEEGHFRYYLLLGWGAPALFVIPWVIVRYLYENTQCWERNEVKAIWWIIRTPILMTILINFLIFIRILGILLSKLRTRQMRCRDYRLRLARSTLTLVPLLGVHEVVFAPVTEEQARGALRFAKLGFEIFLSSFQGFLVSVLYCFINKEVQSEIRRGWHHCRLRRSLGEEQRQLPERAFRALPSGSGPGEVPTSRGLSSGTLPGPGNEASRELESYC"}, "GLP-1 acceptor [2]": {"molecular_target": "T1, GLP-1 acceptor", "remark": "listed apart in the source"}, "GCG acceptor": {"molecular_target": "GCG acceptor (UniProt P47871 26-477, limits assumed)", "sequence (P47871 26-477 limits assumed)": "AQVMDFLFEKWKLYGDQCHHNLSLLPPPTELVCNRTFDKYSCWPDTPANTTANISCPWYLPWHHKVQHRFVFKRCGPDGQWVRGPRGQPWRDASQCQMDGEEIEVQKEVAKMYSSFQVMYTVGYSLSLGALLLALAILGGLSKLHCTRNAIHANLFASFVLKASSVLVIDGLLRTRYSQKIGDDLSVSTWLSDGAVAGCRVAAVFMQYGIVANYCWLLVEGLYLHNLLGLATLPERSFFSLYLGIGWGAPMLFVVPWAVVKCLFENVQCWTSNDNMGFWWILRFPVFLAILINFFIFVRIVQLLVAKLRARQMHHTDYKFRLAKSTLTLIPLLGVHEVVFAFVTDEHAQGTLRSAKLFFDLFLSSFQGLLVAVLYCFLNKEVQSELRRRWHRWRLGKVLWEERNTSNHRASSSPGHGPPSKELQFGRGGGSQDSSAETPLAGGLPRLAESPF"}}, "note": "Like-named read-outs stand apart in the source and are kept apart here. Ends that are not written are not given here."}
{"binder": "HGEGTFTSDVSEYLEKQAAKEFIAWLVRGRG", "note": "[GLP#7]", "values": [{"measurement": "EC50, cAMP accumulation assay; Transient cell line, n = 1", "setting": "GLP-1 acceptor [1]", "result": 0.023, "unit": "nM"}]}
{"binder": "B1", "values": [{"measurement": "EC50, FGFR1/KLB functional assay; n = 2", "setting": "FGFR1/KLB acceptor", "result": 21, "unit": "nM"}]}
{"binder": "YGEGTFISDYSIAMDKIHQQDFVNWLLAQKGKKNDWKHNITQ", "note": "[GIP#1]", "values": [{"measurement": "EC50, cAMP accumulation assay; Transient cell line, n = 3", "setting": "GIP acceptor", "result": 0.0175, "unit": "nM"}]}
{"binder": "YSEGTFISDYSIAMDKIHQQDFVNWLLAQKGKKNDWKHNITQ", "note": "[GIP#2]", "values": [{"measurement": "EC50, cAMP accumulation assay; Stable cell line, n = 2", "setting": "GIP acceptor", "result": 0.012, "unit": "nM"}, {"measurement": "EC50, cAMP accumulation assay; Transient cell line, n = 3", "setting": "GIP acceptor", "result": 0.00663, "unit": "nM"}]}
{"binder": "FSEGTFISDYSIAMDKIHQQDFVNWLLAQKGKKNDWKHNITQ", "note": "[GIP#5]", "values": [{"measurement": "EC50, cAMP accumulation assay; Transient cell line, n = 1", "setting": "GIP acceptor", "result": 0.0819, "unit": "nM"}]}
{"binder": "YGEGTFISDYSIAMDKIRQQDFVNWLLAQKGKKNDWKHNITQ", "note": "[GIP#7]", "values": [{"measurement": "EC50, cAMP accumulation assay; Transient cell line, n = 1", "setting": "GIP acceptor", "result": 0.0769, "unit": "nM"}]}
{"binder": "HSEGTFTSDVSEYLEKQAAKEFIAWLVKGR", "note": "[GLP#6]", "values": [{"measurement": "EC50, cAMP accumulation assay; Transient cell line, n = 2", "setting": "GLP-1 acceptor [1]", "result": 0.0015, "unit": "nM"}]}
{"binder": "HGEGTFTSDVSEYLEKQAAQEFIAWLVKGR", "note": "[GLP#10]", "values": [{"measurement": "EC50, cAMP accumulation assay; Transient cell line, n = 2", "setting": "GLP-1 acceptor [1]", "result": 0.00826, "unit": "nM"}]}
{"binder": "HSQGTFTSDYSKYLDEQAAKEFIAWLMNT", "note": "[GLP/GCG#15]", "values": [{"measurement": "EC50, cAMP accumulation assay; Transient cell line, n = 1", "setting": "GLP-1 acceptor [2]", "result": 0.016, "unit": "nM"}, {"measurement": "EC50, cAMP accumulation assay; Transient cell line, n = 1", "setting": "GCG acceptor", "result": 0.424, "unit": "nM"}]}
{"binder": "HGEGTFTSDVSEYLEKQAAKEFIAWLVNGR", "note": "[GLP#3]", "values": [{"measurement": "EC50, cAMP accumulation assay; Transient cell line, n = 2", "setting": "GLP-1 acceptor [1]", "result": 0.00225, "unit": "nM"}]}
{"binder": "HSEGTFTSDVSSYLEEQAAKEFIAWLVKGGG", "note": "[GLP#5]", "values": [{"measurement": "EC50, cAMP accumulation assay; Transient cell line, n = 1", "setting": "GLP-1 acceptor [1]", "result": 0.00752, "unit": "nM"}]}
{"binder": "HGEGTFTSDVSSYLEEQAAKEFIAWLVKGGG (ends and bridges not checked)", "note": "[GLP#9]", "values": [{"measurement": "EC50, cAMP accumulation assay; Stable cell line, n = 4", "setting": "GLP-1 acceptor [1]", "result": 0.00208, "unit": "nM"}, {"measurement": "EC50, cAMP accumulation assay; Transient cell line, n = 3", "setting": "GLP-1 acceptor [1]", "result": 0.00071, "unit": "nM"}]}
{"binder": "HGEGTFTSDVSSYLEEQAAKEFIAWLVRGRG", "note": "[GLP#8]", "values": [{"measurement": "EC50, cAMP accumulation assay; Transient cell line, n = 2", "setting": "GLP-1 acceptor [1]", "result": 0.00195, "unit": "nM"}]}
{"binder": "HSEGTFTSDVSSYLEGQAAQEFIAWLVNGR", "note": "[GLP#1]", "values": [{"measurement": "EC50, cAMP accumulation assay; Transient cell line, n = 1", "setting": "GLP-1 acceptor [1]", "result": 0.159, "unit": "nM"}]}
{"binder": "HGQGTFTSDYSKYLDEQAAKEFIAWLMNT", "note": "[GLP/GCG#3]", "values": [{"measurement": "EC50, cAMP accumulation assay; Transient cell line, n = 1", "setting": "GLP-1 acceptor [2]", "result": 0.013, "unit": "nM"}, {"measurement": "EC50, cAMP accumulation assay; Transient cell line, n = 1", "setting": "GCG acceptor", "result": "> 5", "unit": "nM"}]}
{"binder": "B2", "values": [{"measurement": "EC50, FGFR1/KLB functional assay; n = 2", "setting": "FGFR1/KLB acceptor", "result": 17.7, "unit": "nM"}]}
{"binder": "B3", "values": [{"measurement": "EC50, FGFR1/KLB functional assay; n = 2", "setting": "FGFR1/KLB acceptor", "result": 22.3, "unit": "nM"}]}
{"binder": "B4", "values": [{"measurement": "EC50, FGFR1/KLB functional assay; n = 2", "setting": "FGFR1/KLB acceptor", "result": 19.1, "unit": "nM"}]}
